B1: anti-TnC clone 11C7 rabbit IgG (antibody, V domains shown)
VH: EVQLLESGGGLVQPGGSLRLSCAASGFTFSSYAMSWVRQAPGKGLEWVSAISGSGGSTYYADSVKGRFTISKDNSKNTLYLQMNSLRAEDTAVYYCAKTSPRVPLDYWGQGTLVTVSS
VL: SSELTQDPAVSVALGQTVRVTCQGDSLRSYYASWYQQKPGQAPVLVIYGKNNRPSGIPDRFSGSSSGNTASLTITGAQAEDEADYYCNSINSTRNEVFGGGTKLTVL
notes: also called llC7 rb IgG; 11C7 (rb IgG)
B2: anti-TnC clone 11C7 Fab (Fab, V domains shown)
VH: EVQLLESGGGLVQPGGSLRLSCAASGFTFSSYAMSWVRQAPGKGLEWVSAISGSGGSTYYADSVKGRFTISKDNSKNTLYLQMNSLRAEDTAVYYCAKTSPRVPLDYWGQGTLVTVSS
VL: SSELTQDPAVSVALGQTVRVTCQGDSLRSYYASWYQQKPGQAPVLVIYGKNNRPSGIPDRFSGSSSGNTASLTITGAQAEDEADYYCNSINSTRNEVFGGGTKLTVL
notes: Bacterially expressed purified Fab from the lambda-DP47 phage library format (lambda CL, CH1, tags)
B3: anti-TnC 18D4 wild type human IgG1 (antibody)
heavy: not shown
light: DIQMTQSPSTLSASVGDRVTITCRASQSISSWLAWYQQKPGKAPKLLIYDASSLESGVPSRFSGSGSGTEFTLTISSLQPDDFATYYCQQNKKFPSGTFGQGTKVEIKRTVAAPSVFIFPPSDEQLKSGTASVVCLLNNFYPREAKVQWKVDNALQSGNSQESVTEQDSKDSTYSLSSTLTLSKADYEKHKVYACEVTHQGLSSPVTKSFNRGEC
notes: also called 18D4 IgG wt Fc; a-TnC(18D4) huIgG1
B4: anti-TnC(18D4) huIgG1 P329G LALA (antibody)
heavy: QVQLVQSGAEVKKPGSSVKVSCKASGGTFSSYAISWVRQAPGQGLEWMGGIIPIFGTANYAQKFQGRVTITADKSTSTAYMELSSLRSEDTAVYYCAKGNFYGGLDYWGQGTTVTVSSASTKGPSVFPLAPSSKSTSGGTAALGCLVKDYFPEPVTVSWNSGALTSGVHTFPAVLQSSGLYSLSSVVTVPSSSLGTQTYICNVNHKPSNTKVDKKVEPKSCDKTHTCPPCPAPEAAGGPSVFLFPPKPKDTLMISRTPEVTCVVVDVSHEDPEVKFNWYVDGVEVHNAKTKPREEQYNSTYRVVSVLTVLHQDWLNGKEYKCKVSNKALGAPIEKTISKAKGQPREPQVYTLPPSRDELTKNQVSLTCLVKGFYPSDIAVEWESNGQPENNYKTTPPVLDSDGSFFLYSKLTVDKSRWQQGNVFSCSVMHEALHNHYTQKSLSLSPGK
light: DIQMTQSPSTLSASVGDRVTITCRASQSISSWLAWYQQKPGKAPKLLIYDASSLESGVPSRFSGSGSGTEFTLTISSLQPDDFATYYCQQNKKFPSGTFGQGTKVEIKRTVAAPSVFIFPPSDEQLKSGTASVVCLLNNFYPREAKVQWKVDNALQSGNSQESVTEQDSKDSTYSLSSTLTLSKADYEKHKVYACEVTHQGLSSPVTKSFNRGEC
notes: also called 18D4 IgG PG/LALA; 18D4 IgG PGLALA

Tests used:
[1] = biological target: T1, huTNC (recombinant human TnC antigen) (human, UniProt P24821 984-1798, biotin on the C-terminal avi-tag where used biotinylated (Examples 5 and 10)); experiment: SPR Biacore T200, biotinylated TnC on SA chip, IgG as analyte, 1:1 fit (apparent, bivalent)
T1 sequence: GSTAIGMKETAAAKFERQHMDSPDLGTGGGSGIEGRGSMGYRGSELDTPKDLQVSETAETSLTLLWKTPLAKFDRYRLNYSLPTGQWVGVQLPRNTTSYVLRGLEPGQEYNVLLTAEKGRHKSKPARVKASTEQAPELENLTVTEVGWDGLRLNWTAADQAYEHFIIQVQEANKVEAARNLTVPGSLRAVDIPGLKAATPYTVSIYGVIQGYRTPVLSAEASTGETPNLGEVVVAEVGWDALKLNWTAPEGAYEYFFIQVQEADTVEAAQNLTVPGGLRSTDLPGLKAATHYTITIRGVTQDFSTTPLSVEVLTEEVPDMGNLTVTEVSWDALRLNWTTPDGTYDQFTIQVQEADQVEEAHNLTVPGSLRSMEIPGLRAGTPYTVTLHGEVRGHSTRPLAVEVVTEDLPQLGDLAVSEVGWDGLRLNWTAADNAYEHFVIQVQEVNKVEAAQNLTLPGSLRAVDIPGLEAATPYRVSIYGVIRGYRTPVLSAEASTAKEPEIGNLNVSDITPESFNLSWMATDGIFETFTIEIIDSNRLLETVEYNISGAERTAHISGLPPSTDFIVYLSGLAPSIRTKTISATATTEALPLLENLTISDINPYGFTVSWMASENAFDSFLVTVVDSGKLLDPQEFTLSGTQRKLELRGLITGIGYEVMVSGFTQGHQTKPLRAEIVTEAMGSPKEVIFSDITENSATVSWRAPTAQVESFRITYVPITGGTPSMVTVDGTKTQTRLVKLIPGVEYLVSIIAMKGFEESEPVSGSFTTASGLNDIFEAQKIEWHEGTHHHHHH
Method: (§1) Binding of the anti-TnC IgGs 18D4, 11C7 and the Fab fragment of anti-TnC 18D4 to human, murine and cynomolgus TnC (antigens according to Table 4) was assessed by surface plasmon resonance (SPR). All SPR experiments were performed on a Biacore T200 at 25° C. with HBS-EP as running buffer (0.01 M HEPES pH 7.4, 0.15 M NaCl, 3 mM EDTA, 0.005% Surfactant P20, Biacore, Freiburg/Germany).
(§2) A 20 μg/ml stock solution of biotinylated human, murine or cynomolgus TnC was injected on a SA chip, with the aim to immobilize up to 100 RU using the immobilization wizard function.
(§3) An additional dissociation step of 1800s was performed for the highest concentration of IgG. After each step the surface was regenerated following two sequential injections of 10 mM glycine pH2.1 for 60 s. Bulk refractive index differences were corrected for by subtracting the response obtained in a reference flow cell without TNC. Affinity and avidity were calculated using the Langmuir 1:1 kinetic model. However, as the KD for the 1:1 fitting of bivalent interactions is an apparent value only, it should only be used for comparisons.

[2] = biological target: T2, GST huTNC fn5 A1234 BC fn6 B (human, UniProt P24821 984-1798, biotin on the C-terminal avi-tag (BirA, site-specific)); experiment: SPR ProteOn XPR36, biotinylated antigen on NLC chip, Fab as analyte, 25 C
T2 construct: also called Human GST-fused TnC fn5 A1234 BC fn6
T2 sequence: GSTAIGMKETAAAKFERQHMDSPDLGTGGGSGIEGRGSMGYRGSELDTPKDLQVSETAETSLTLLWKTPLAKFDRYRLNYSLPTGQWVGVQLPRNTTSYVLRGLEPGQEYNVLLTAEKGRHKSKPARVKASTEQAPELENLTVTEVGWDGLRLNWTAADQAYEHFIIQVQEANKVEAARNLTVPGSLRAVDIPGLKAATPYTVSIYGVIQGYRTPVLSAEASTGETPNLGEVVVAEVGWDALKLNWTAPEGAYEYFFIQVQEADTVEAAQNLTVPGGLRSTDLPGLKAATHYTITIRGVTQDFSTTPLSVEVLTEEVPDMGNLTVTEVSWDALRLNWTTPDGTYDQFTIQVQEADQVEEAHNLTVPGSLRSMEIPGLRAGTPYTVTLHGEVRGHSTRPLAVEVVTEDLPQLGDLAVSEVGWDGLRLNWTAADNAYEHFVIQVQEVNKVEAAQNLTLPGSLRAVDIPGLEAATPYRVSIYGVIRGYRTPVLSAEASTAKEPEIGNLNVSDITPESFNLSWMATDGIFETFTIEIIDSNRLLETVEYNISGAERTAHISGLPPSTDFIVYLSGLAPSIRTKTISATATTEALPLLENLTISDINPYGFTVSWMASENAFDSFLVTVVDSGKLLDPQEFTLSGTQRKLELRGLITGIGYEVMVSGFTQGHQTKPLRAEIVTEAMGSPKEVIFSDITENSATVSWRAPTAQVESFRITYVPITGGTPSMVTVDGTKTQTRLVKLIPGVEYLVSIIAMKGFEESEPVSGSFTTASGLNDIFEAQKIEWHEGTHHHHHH
Method: (§4) Immobilization of antigens (ligand): Recombinant antigens were diluted with PBST (10 mM phosphate, 150 mM sodium chloride pH 7.4, 0.005% Tween 20) to 10 μg/ml, then injected at 30 μl/minute in vertical orientation. Injection of analytes: For ‘one-shot kinetics’ measurements, injection direction was changed to horizontal orientation, two-fold dilution series of purified Fab were injected simultaneously along separate channels 1-5, with association times of 200 s, and dissociation times of 240 s, respectively. Buffer (PBST) was injected along the sixth channel to provide an “in-line” blank for referencing. Association rate constants (kₒₙ) and dissociation rate constants (koff) were calculated using a simple one-to-one Langmuir binding model in ProteOn Manager v3.1 software by simultaneously fitting the association and dissociation sensorgrams. The equilibrium dissociation constant (KD) was calculated as the ratio koff/kₒₙ.

[3] = biological target: T3, GST TNC hu fn5 B-C fn6 B (human, biotin on the C-terminal avi-tag (BirA, site-specific)); experiment: as above
T3 chain: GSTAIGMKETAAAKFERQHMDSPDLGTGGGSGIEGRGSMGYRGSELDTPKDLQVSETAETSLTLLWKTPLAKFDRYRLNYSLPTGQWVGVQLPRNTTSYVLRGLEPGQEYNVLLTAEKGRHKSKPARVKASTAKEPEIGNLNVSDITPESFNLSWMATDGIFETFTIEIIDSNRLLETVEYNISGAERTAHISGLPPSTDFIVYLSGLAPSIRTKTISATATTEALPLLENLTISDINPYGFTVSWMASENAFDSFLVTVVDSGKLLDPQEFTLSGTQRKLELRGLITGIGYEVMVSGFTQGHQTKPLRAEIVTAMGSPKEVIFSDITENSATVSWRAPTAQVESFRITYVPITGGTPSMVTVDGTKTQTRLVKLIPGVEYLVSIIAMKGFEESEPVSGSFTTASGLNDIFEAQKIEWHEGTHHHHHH
Method: as §4

[4] = biological target: T4, cynoTNC (recombinant cynomolgus TnC antigen) (cynomolgus, biotin on the C-terminal avi-tag where used biotinylated (Example 5)); experiment: SPR Biacore T200, biotinylated TnC on SA chip, IgG as analyte, 1:1 fit (apparent, bivalent)
T4 construct: GST may have been cleaved off by thrombin; The text says this construct lacks the C domain
T4 chain: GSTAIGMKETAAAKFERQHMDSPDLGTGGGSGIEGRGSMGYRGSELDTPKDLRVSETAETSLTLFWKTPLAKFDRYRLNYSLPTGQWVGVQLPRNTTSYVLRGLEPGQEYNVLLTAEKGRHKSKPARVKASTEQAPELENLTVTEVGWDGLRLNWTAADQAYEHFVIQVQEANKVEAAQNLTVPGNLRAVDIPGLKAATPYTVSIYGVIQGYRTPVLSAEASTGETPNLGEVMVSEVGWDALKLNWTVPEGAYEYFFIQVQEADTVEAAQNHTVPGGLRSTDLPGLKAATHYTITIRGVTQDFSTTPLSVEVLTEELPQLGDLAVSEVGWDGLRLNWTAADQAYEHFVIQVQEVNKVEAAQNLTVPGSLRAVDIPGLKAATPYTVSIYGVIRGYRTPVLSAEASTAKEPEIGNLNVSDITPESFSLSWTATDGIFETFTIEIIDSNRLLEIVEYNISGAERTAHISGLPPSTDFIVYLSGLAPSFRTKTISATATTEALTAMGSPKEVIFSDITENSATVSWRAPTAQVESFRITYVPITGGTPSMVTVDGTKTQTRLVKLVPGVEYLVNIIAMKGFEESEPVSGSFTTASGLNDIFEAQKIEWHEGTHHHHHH
Method: as §1, §2, §3

[5] = biological target: T5, muTNC (recombinant murine TnC antigen) (mouse, biotin on the C-terminal avi-tag where used biotinylated (Example 5)); experiment: as above
T5 construct: GST may have been cleaved off by thrombin; The text says this construct lacks the C domain; also called mouse TnC
T5 chain: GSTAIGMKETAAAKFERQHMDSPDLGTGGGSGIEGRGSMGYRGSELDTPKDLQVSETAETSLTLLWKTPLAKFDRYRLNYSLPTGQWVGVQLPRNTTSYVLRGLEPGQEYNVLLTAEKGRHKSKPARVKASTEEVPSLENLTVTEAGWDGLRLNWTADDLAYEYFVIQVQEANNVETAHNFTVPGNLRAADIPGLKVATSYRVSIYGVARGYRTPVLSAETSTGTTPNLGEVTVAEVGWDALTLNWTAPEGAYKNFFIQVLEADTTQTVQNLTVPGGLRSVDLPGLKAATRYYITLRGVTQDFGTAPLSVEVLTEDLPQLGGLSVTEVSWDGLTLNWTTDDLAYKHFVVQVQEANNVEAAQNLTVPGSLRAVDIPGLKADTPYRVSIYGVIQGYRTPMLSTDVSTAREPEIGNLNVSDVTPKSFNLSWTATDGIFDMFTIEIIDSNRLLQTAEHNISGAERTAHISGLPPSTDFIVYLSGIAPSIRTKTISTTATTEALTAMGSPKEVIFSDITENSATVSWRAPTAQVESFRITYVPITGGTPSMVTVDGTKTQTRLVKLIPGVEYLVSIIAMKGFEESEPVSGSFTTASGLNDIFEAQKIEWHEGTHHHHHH
Method: as §1, §2, §3

[6] = biological target: T6, human TnC on TnC-expressing U87-MG glioblastoma cells (human, UniProt P24821 23-2201); experiment: flow cytometry on TnC-expressing U87-MG cells
T6 construct: whole, on cells; also called human-TnC expressing U87-MG
T6 sequence (P24821 23-2201): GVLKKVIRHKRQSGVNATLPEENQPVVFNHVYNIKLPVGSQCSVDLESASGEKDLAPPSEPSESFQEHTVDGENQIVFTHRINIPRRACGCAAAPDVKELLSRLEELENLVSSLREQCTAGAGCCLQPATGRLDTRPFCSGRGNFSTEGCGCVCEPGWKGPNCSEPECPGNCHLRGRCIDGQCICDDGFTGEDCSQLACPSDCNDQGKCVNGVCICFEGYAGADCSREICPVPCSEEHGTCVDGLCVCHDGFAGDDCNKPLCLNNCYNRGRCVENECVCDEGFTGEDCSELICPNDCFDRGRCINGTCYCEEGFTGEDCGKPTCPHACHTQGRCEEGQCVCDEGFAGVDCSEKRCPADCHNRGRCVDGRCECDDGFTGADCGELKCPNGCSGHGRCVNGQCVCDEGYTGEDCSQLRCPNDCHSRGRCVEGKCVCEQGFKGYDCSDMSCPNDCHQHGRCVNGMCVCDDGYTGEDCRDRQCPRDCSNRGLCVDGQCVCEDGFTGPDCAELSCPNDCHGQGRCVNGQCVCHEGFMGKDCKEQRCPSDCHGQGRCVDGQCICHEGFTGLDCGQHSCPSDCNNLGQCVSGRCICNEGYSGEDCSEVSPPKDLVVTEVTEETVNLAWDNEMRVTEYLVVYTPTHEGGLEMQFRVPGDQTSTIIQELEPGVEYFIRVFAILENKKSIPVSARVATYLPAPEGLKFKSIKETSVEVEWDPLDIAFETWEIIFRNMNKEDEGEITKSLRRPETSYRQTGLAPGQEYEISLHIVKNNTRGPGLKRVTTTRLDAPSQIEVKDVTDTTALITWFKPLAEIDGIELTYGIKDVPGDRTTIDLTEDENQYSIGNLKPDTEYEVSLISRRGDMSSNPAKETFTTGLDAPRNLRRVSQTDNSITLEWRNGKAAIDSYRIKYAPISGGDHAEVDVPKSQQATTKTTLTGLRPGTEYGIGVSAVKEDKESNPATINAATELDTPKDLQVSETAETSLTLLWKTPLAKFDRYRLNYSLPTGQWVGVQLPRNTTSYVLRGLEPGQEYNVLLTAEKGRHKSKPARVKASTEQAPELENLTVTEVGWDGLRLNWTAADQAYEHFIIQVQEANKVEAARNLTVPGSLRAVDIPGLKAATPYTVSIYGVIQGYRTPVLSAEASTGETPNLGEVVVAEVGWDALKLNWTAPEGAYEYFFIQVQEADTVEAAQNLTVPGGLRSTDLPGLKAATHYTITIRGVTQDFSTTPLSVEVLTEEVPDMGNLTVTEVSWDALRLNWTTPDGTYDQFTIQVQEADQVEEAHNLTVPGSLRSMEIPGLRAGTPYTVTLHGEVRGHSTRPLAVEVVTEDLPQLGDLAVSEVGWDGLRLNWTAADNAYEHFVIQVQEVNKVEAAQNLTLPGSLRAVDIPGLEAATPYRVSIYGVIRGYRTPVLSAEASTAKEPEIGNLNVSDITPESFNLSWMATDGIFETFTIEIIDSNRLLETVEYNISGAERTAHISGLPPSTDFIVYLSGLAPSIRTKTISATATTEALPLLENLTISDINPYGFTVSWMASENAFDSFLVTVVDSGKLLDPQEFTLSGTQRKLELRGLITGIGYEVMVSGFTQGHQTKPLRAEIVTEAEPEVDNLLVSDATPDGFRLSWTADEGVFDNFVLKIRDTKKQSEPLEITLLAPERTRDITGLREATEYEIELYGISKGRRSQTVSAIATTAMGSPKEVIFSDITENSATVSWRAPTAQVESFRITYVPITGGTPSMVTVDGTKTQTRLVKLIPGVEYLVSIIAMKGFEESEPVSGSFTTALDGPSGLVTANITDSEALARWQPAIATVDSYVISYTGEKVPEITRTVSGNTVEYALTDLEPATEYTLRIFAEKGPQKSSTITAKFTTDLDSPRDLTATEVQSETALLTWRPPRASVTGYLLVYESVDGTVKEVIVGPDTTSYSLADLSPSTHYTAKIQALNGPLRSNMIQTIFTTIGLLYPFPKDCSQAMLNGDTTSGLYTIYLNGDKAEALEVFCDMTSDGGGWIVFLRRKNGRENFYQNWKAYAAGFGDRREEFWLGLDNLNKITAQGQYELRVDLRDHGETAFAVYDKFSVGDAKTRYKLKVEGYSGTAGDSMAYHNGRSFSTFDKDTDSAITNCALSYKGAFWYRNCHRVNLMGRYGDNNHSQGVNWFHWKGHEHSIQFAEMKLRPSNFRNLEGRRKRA

Binder | Kd [1] | Kd [2] | Kd [3] | Kd [4] | Kd [5] | EC50 [6]
B1 | 0.029 nM |  |  |  |  | 
B2 |  | 2.3 nM | 1 nM |  |  | 
B3 | 0.093 nM |  |  | 0.036 nM | 0.061 nM | 
B4 | 0.032 nM |  |  | 0.011 nM | 0.03 nM | 4.24 nM
